{"source": "patent US20230203125A1", "biological_target": "CD47 (UniProt Q08722)", "sequence (Q08722 19-323 limits assumed)": "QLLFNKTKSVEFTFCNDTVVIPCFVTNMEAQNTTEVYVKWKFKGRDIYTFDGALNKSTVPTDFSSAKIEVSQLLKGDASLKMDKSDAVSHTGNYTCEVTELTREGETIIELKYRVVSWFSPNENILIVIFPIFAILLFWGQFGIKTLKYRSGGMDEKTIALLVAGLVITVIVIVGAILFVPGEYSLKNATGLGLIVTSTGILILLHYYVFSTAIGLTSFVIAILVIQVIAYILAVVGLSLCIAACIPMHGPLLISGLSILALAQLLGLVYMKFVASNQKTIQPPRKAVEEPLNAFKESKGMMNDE", "experiment": "cell-based or functional assay"}
{"substance": "SIRPγ fusion protein SIRPγ-CD28TM-CD28 (receptor)", "values": [{"measurement": "Specific Lysis (%) of target cells DLD1-CEA, 24 h, effector-target ratio 1:1", "value": 45.2, "unit": "%"}]}
